{"source": "the supplement of paper PMC12458215", "test_system": "HEK293T", "assay": "plasma membrane surface immunostaining intensity (anti-HA, deep receptor scanning) (arbitrary fluorescence units); higher = higher plasma membrane expression", "note": "± gives the uncertainty stated by the source.", "data": [{"sequence": "MALTPESPSSFPGLAATGSSVPEPPGGPNATLNSSWASPTEPSSLEDLVATGTIGTLLSAMGVVGVVGNAYTLVVTCRSLRAVASMYVYVVNLALADLLYLLSIPFIVATYVTKEWHFGDVGCRVLFGLDFLTMHASIFTLTVMSSERYAAVLRPLDTVQRPKGYRKLLALGTWLLALLLTLPVMLAMRLVRRGPKSLCLPAWGPRAHRAYLTLLFATSIAGPGLLIGLLYARLARAYRRSQRASFKRARRPGARALRLVLGIVLLFWACFLPFWLWQLLAQYHQAPLAPRTARIVNYLTTCLTYGNSCANPFLYTLLTRNYRDHLRGRVRGPGSGGGRGPVPSLQPRARFQRCSGRSLSSCSPQPTDSLVLAPAAPARPAPEGPRAPA [UTS2R]", "values": [{"measurement": "plasma membrane surface immunostaining intensity", "setting": "GPCR class: A", "value": "2430 ± 120"}]}, {"sequence": "MLPDWKSSLILMAYIIIFLTGLPANLLALRAFVGRIRQPQPAPVHILLLSLTLADLLLLLLLPFKIIEAASNFRWYLPKVVCALTSFGFYSSIYCSTWLLAGISIERYLGVAFPVQYKLSRRPLYGVIAALVAWVMSFGHCTIVIIVQYLNTTEQVRSGNEITCYENFTDNQLDVVLPVRLELCLVLFFIPMAVTIFCYWRFVWIMLSQPLVGAQRRRRAVGLAVVTLLNFLVCFGPYNVSHLVGYHQRKSPWWRSIAVVFSSLNASLDPLLFYFSSSVVRRAFGRGLQVLRNQGSSLLGRRGKDTAEGTNEDRGVGQGEGMPSSDFTTE [FFAR2]", "values": [{"measurement": "plasma membrane surface immunostaining intensity", "setting": "GPCR class: A", "value": "3600 ± 470"}]}, {"sequence": "MCPMLLKNGYNGNATPVTTTAPWASLGLSAKTCNNVSFEESRIVLVVVYSAVCTLGVPANCLTAWLALLQVLQGNVLAVYLLCLALCELLYTGTLPLWVIYIRNQHRWTLGLLACKVTAYIFFCNIYVSILFLCCISCDRFVAVVYALESRGRRRRRTAILISACIFILVGIVHYPVFQTEDKETCFDMLQMDSRIAGYYYARFTVGFAIPLSIIAFTNHRIFRSIKQSMGLSAAQKAKVKHSAIAVVVIFLVCFAPYHLVLLVKAAAFSYYRGDRNAMCGLEERLYTASVVFLCLSTVNGVADPIIYVLATDHSRQEVSRIHKGWKEWSMKTDVTRLTHSRDTEELQSPVALADHYTFSRPVHPPGSPCPAKRLIEESC [GPR132]", "values": [{"measurement": "plasma membrane surface immunostaining intensity", "setting": "GPCR class: A", "value": "372 ± 74"}]}, {"sequence": "MEGDSYHNATTVNGTPVNHQPLERHRLWEVITIAAVTAVVSLITIVGNVLVMISFKVNSQLKTVNNYYLLSLACADLIIGIFSMNLYTTYILMGRWALGSLACDLWLALDYVASNASVMNLLVISFDRYFSITRPLTYRAKRTPKRAGIMIGLAWLISFILWAPAILCWQYLVGKRTVPLDECQIQFLSEPTITFGTAIAAFYIPVSVMTILYCRIYRETEKRTKDLADLQGSDSVTKAEKRKPAHRALFRSCLRCPRPTLAQRERNQASWSSSRRSTSTTGKPSQATGPSANWAKAEQLTTCSSYPSSEDEDKPATDPVLQVVYKSQGKESPGEEFSAEETEETFVKAETEKSDYDTPNYLLSPAAAHRPKSQKCVAYKFRLVVKADGNQETNNGCHKVKIMPCPFPVAKEPSTKGLNPNPSHQMTKRKRVVLVKERKAAQTLSAILLAFIITWTPYNIMVLVSTFCDKCVPVTLWHLGYWLCYVNSTVNPICYALCNRTFRKTFKMLLLCRWKKKKVEEKLYWQGNSKLP [CHRM5]", "values": [{"measurement": "plasma membrane surface immunostaining intensity", "setting": "GPCR class: A", "value": "1470 ± 190"}]}, {"sequence": "MLTLTRIRTVSYEVRSTFLFISVLEFAVGFLTNAFVFLVNFWDVVKRQALSNSDCVLLCLSISRLFLHGLLFLSAIQLTHFQKLSEPLNHSYQAIIMLWMIANQANLWLAACLSLLYCSKLIRFSHTFLICLASWVSRKISQMLLGIILCSCICTVLCVWCFFSRPHFTVTTVLFMNNNTRLNWQIKDLNLFYSFLFCYLWSVPPFLLFLVSSGMLTVSLGRHMRTMKVYTRNSRDPSLEAHIKALKSLVSFFCFFVISSCAAFISVPLLILWRDKIGVMVCVGIMAACPSGHAAILISGNAKLRRAVMTILLWAQSSLKVRADHKADSRTLC [TAS2R38]", "values": [{"measurement": "plasma membrane surface immunostaining intensity", "setting": "GPCR class: Taste", "value": "123 ± 18"}]}, {"sequence": "MNDDGKVNASSEGYFILVGFSNWPHLEVVIFVVVLIFYLMTLIGNLFIIILSYLDSHLHTPMYFFLSNLSFLDLCYTTSSIPQLLVNLWGPEKTISYAGCMIQLYFVLALGTTECVLLVVMSYDRYAAVCRPLHYTVLMHPRFCHLLAVASWVSGFTNSALHSSFTFWVPLCGHRQVDHFFCEVPALLRLSCVDTHVNELTLMITSSIFVLIPLILILTSYGAIVRAVLRMQSTTGLQKVFGTCGAHLMAVSLFFIPAMCIYLQPPSGNSQDQGKFIALFYTVVTPSLNPLIYTLRNKVVRGAVKRLMGWE [OR2J3]", "values": [{"measurement": "plasma membrane surface immunostaining intensity", "setting": "GPCR class: A (Olfactory)", "value": "184 ± 45"}]}]}
